Assay: confocal FL-CD19-GFP, WGA Pearson colocalisation, Nalm6 and 697
Settings: glycan changed form; control: DMSO

B1: CD19: swainsonine (protein)
parent chain: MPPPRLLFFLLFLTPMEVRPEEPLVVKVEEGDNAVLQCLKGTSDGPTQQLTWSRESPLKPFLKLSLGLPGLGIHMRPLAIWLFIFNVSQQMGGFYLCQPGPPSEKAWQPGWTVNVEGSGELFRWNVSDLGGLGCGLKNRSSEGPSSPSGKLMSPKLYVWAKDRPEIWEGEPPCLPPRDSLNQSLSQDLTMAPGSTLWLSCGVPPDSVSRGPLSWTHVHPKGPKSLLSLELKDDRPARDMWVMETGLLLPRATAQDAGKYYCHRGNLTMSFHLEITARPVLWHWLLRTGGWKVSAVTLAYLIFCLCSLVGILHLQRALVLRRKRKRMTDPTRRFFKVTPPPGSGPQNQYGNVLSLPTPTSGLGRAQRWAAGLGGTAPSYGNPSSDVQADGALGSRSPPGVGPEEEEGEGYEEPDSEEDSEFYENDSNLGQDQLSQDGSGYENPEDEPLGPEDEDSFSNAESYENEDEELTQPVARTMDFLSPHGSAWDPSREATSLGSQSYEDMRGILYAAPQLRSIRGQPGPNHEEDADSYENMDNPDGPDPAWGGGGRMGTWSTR
localisation_or_trafficking: no change

— paper PMC6189457
